Tests used:
HLA-B*46:01 = test: IEDB peptide-MHC binding, purified MHC/competitive/fluorescence; filed as Kd, often an IC50 or EC50 that approximates it; ≥ and ≤ were set here for values at or beyond the usual limits of such assays
HLA-C*03:03 = test: IEDB peptide-MHC binding, purified MHC/direct/fluorescence; filed as Kd, often an IC50 or EC50 that approximates it; ≥ and ≤ were set here for values at or beyond the usual limits of such assays
HLA-B*08:01 = test: IEDB peptide-MHC binding, purified MHC/competitive/fluorescence; filed as Kd, often an IC50 or EC50 that approximates it; ≥ and ≤ were set here for values at or beyond the usual limits of such assays
HLA-A*31:01 = test: as above
HLA-A*11:01 [1] = test: IEDB peptide-MHC binding, purified MHC/direct/fluorescence; filed as Kd, often an IC50 or EC50 that approximates it; ≥ and ≤ were set here for values at or beyond the usual limits of such assays
HLA-A*02:01 = test: IEDB peptide-MHC binding, purified MHC/competitive/fluorescence; filed as Kd, often an IC50 or EC50 that approximates it; ≥ and ≤ were set here for values at or beyond the usual limits of such assays
HLA-B*39:01 = test: as above
HLA-B*15:42 = test: as above; conditions: source organism: Zaire ebolavirus
HLA-B*83:01 = test: as above; conditions: source organism: Zaire ebolavirus
HLA-B*27:03 = test: as above
HLA-B*15:17 = test: as above
HLA-B*15:01 [2] = test: as above
HLA-B*51:01 = test: as above
HLA-B*57:01 [3] = test: as above
HLA-B*45:06 = test: as above; conditions: source organism: Zaire ebolavirus
HLA-B*18:01 = test: as above
HLA-A*02:19 = test: IEDB peptide-MHC binding, purified MHC/direct/fluorescence; filed as Kd, often an IC50 or EC50 that approximates it; ≥ and ≤ were set here for values at or beyond the usual limits of such assays
HLA-A*24:03 = test: as above
HLA-A*02:03 = test: as above
HLA-A*02:16 [4] = test: as above
HLA-A*03:01 [5] = test: as above
HLA-A*02:12 = test: as above
HLA-A*69:01 = test: IEDB peptide-MHC binding, purified MHC/competitive/fluorescence; filed as Kd, often an IC50 or EC50 that approximates it; ≥ and ≤ were set here for values at or beyond the usual limits of such assays
HLA-A*26:01 = test: as above
HLA-B*35:01 = test: as above
HLA-B*58:01 [6] = test: IEDB peptide-MHC binding, purified MHC/direct/fluorescence; filed as Kd, often an IC50 or EC50 that approximates it; ≥ and ≤ were set here for values at or beyond the usual limits of such assays; conditions: source organism: Reston ebolavirus - Reston
HLA-B*15:01 [7] = test: as above; conditions: source organism: Reston ebolavirus - Reston
HLA-A*11:01 [8] = test: IEDB peptide-MHC binding, purified MHC/competitive/fluorescence; filed as Kd, often an IC50 or EC50 that approximates it; ≥ and ≤ were set here for values at or beyond the usual limits of such assays
HLA-A*01:01 = test: IEDB peptide-MHC binding, purified MHC/competitive/radioactivity; filed as Kd, often an IC50 or EC50 that approximates it; ≥ and ≤ were set here for values at or beyond the usual limits of such assays; conditions: source organism: Dengue virus 2 Jamaica/1409/1983
HLA-B*58:01 [9] = test: as above; conditions: source organism: Dengue virus 2 Jamaica/1409/1983
HLA-B*53:01 = test: as above; conditions: source organism: Dengue virus 2 Jamaica/1409/1983
HLA-B*57:01 [10] = test: as above; conditions: source organism: Dengue virus 2 Jamaica/1409/1983
HLA-C*07:02 = test: IEDB peptide-MHC binding, purified MHC/direct/fluorescence; filed as Kd, often an IC50 or EC50 that approximates it; ≥ and ≤ were set here for values at or beyond the usual limits of such assays; conditions: source organism: Human herpesvirus 4 strain B95-8
HLA-A*68:02 = test: as above; conditions: source organism: Limestone Canyon virus
HLA-A*29:02 = test: as above; conditions: source organism: Limestone Canyon virus
HLA-A*02:11 = test: as above; conditions: source organism: Limestone Canyon virus
HLA-B*07:02 = test: as above; conditions: source organism: Orthohantavirus puumalaense
HLA-A*02:16 [11] = test: IEDB peptide-MHC binding, purified MHC/competitive/fluorescence; filed as Kd, often an IC50 or EC50 that approximates it; ≥ and ≤ were set here for values at or beyond the usual limits of such assays; conditions: source organism: Mycobacterium tuberculosis C
HLA-A*03:01 [12] = test: as above; conditions: source organism: Escherichia coli 536
[13] = source organism: Mycobacterium tuberculosis variant bovis BCG str. Pasteur 1173P2
[14] = source organism: Escherichia coli 536
[15] = source organism: Zaire ebolavirus
[16] = source organism: Escherichia coli
[17] = source organism: Influenza A virus (A/Belfast/53582/2004(H3N?))
[18] = source organism: Reston ebolavirus
[19] = source organism: Vibrio vulnificus
[20] = source organism: Orthohantavirus puumalaense
[21] = source organism: Limestone Canyon virus
[22] = source organism: Bacillus anthracis str. A0488
[23] = source organism: Mycobacterium tuberculosis C

SAFGGGNAF
Kd (HLA-B*46:01; [13]): 0.0368 µM | Kd (HLA-C*03:03; [13]): ≤ 0.001 µM

LIAVPHTKL
Kd (HLA-B*08:01; [14]): ≥ 20 µM

KTALTGAMR
Kd (HLA-A*31:01; source organism: Yellow fever virus 1899/81): 0.016 µM | Kd (HLA-A*11:01 [1]; source organism: Yellow fever virus): 0.0151 µM

FTFDLTALK
Kd (HLA-A*02:01; [15]): ≥ 20 µM | Kd (HLA-B*39:01; [15]): ≥ 20 µM | Kd (HLA-B*15:42): ≥ 5 µM | Kd (HLA-A*31:01; [15]): ≥ 20 µM | Kd (HLA-B*83:01): ≥ 5 µM | Kd (HLA-B*27:03; [15]): ≥ 20 µM | Kd (HLA-B*15:17; [15]): ≥ 20 µM | Kd (HLA-B*15:01 [2]; [15]): ≥ 20 µM | Kd (HLA-B*51:01; [15]): ≥ 20 µM | Kd (HLA-B*57:01 [3]; [15]): ≥ 20 µM | Kd (HLA-B*45:06): ≥ 5 µM | Kd (HLA-B*46:01; [15]): ≥ 20 µM | Kd (HLA-B*18:01; [15]): ≥ 20 µM | Kd (HLA-A*02:19; [15]): ≥ 20 µM | Kd (HLA-A*24:03; [15]): ≥ 20 µM | Kd (HLA-A*02:03; [15]): ≥ 20 µM | Kd (HLA-A*02:16 [4]; [15]): ≥ 20 µM | Kd (HLA-A*03:01 [5]; source organism: Ebola virus - Gabon (1994-1997)): 0.229 µM | Kd (HLA-A*02:12; [15]): ≥ 20 µM

HLAGYSGVL
Kd (HLA-B*08:01; [16]): 1.9 µM | Kd (HLA-B*39:01; [16]): 0.0025 µM | Kd (HLA-B*15:01 [2]; [16]): 0.353 µM

WILDRLFFK
Kd (HLA-A*31:01; source organism: Influenza A virus (A/Memphis/1/1978(H1N1))): 0.244 µM | Kd (HLA-A*11:01 [1]; [17]): 0.0021 µM | Kd (HLA-A*03:01 [5]; [17]): 0.0527 µM

QAFEAGIDF
Kd (HLA-A*69:01; [18]): ≥ 20 µM | Kd (HLA-A*02:01; [18]): ≥ 20 µM | Kd (HLA-B*39:01; [18]): ≥ 20 µM | Kd (HLA-B*27:03; [18]): ≥ 20 µM | Kd (HLA-A*26:01; [18]): ≥ 20 µM | Kd (HLA-B*15:17; [18]): ≥ 20 µM | Kd (HLA-B*51:01; [18]): ≥ 20 µM | Kd (HLA-B*57:01 [3]; [18]): ≥ 20 µM | Kd (HLA-B*35:01; [18]): 0.0002 µM | Kd (HLA-B*18:01; [18]): ≥ 20 µM | Kd (HLA-B*58:01 [6]): 1.03 µM | Kd (HLA-B*15:01 [7]): 0.0766 µM

SSFSFGGFTFK
Kd (HLA-A*11:01 [8]; source organism: Influenza A virus H3N2): 0.0005 µM

LTSSQQKADW
Kd (HLA-A*01:01): 11 µM | Kd (HLA-B*58:01 [9]): 0.0592 µM | Kd (HLA-B*53:01): ≥ 21.8 µM | Kd (HLA-B*57:01 [10]): 0.1 µM

SSGVFHSYK
Kd (HLA-A*31:01; source organism: Vibrio vulnificus YJ016): 0.0035 µM | Kd (HLA-A*11:01 [1]; [19]): ≤ 0.001 µM | Kd (HLA-A*03:01 [5]; [19]): 0.0097 µM

FYNIPPMPL
Kd (HLA-C*03:03; source organism: Human herpesvirus 4 strain B95-8): 0.051 µM | Kd (HLA-C*07:02): 0.043 µM

SPVMGVIGF
Kd (HLA-A*69:01; [20]): ≥ 20 µM | Kd (HLA-A*02:01; [20]): ≥ 20 µM | Kd (HLA-B*39:01; [20]): ≥ 20 µM | Kd (HLA-B*27:03; [20]): ≥ 20 µM | Kd (HLA-A*26:01; [20]): ≥ 20 µM | Kd (HLA-B*15:17; [20]): ≥ 20 µM | Kd (HLA-B*15:01 [2]; [20]): ≥ 20 µM | Kd (HLA-B*51:01; [20]): ≥ 20 µM | Kd (HLA-B*57:01 [3]; [20]): ≥ 20 µM | Kd (HLA-B*46:01; [20]): ≥ 20 µM | Kd (HLA-B*35:01; [20]): 0.0005 µM | Kd (HLA-B*18:01; [20]): ≥ 20 µM | Kd (HLA-A*68:02): ≥ 20 µM | Kd (HLA-A*29:02): ≥ 20 µM | Kd (HLA-A*02:19; [21]): ≥ 20 µM | Kd (HLA-A*24:03; [21]): ≥ 20 µM | Kd (HLA-A*02:03; [21]): ≥ 20 µM | Kd (HLA-A*02:11): ≥ 20 µM | Kd (HLA-A*02:16 [4]; [21]): ≥ 20 µM | Kd (HLA-A*03:01 [5]; [21]): ≥ 20 µM | Kd (HLA-A*02:12; [21]): ≥ 20 µM | Kd (HLA-B*07:02): 0.0607 µM

IVVDNTSAF
Kd (HLA-B*15:01 [2]; [22]): 0.0704 µM | Kd (HLA-B*35:01; [22]): 0.0004 µM

TMDPSVRVL
Kd (HLA-A*02:01; [23]): 0.0414 µM | Kd (HLA-A*02:16 [11]): 0.217 µM | Kd (HLA-C*03:03; [23]): 0.03 µM

VVYKTGAIR
Kd (HLA-A*31:01; [23]): 0.0594 µM | Kd (HLA-A*03:01 [5]; source organism: Mycobacterium leprae): 0.751 µM

TVFSLLLFY
Kd (HLA-A*11:01 [8]; source organism: Yersinia pestis Nepal516): 0.5 µM

KIPATVIAR
Kd (HLA-A*31:01; [14]): 0.0344 µM | Kd (HLA-A*03:01 [12]): 0.031 µM

From the Immune Epitope Database (IEDB)
